Data: the supplement of paper PMC10065799, “High-throughput profiling of sequence recognition by tyrosine kinases and SH2 domains using bacterial peptide display” (eLife, 2023)

How the values were obtained:
[1] = test system: AncSZ; experiment: phosphorylation enrichment, bacterial display (enrichment ratio); higher = better substrate or ligand; peptides without Tyr show the background
[2] = test system: c-Src; experiment: as above
[3] = target: MERTK (UniProt Q12866); experiment: as above
[4] = target: EPHB2 (UniProt P29323); experiment: as above
EPHB2, sequence (P29323 whole entry, looked up): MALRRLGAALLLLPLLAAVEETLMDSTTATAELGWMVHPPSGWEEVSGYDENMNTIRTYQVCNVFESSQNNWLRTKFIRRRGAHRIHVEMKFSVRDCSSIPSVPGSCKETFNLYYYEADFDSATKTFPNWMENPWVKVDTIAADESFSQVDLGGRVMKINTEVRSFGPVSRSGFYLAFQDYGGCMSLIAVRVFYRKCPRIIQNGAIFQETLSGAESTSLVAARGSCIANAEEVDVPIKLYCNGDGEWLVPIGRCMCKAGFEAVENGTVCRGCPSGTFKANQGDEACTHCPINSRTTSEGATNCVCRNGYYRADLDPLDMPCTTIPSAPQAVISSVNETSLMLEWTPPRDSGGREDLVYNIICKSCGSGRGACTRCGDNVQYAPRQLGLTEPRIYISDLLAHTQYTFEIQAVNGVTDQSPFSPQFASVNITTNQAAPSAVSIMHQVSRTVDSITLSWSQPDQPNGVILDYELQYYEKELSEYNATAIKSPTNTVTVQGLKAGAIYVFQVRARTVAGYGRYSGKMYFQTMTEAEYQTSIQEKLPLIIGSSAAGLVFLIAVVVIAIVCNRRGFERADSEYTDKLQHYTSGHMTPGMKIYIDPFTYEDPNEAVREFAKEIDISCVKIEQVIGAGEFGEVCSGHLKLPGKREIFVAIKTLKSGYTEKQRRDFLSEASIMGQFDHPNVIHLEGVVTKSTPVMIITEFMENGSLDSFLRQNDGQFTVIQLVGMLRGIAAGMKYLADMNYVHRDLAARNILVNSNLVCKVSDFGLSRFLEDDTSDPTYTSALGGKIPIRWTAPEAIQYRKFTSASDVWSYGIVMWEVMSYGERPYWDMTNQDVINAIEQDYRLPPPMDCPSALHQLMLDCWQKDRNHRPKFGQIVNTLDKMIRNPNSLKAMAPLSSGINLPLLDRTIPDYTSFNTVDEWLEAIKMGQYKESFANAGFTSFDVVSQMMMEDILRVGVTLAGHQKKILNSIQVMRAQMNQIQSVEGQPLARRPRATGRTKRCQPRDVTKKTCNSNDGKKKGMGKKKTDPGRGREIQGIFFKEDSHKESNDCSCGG

[5] = target: Hck (UniProt P08631); experiment: as above
Hck, sequence (P08631 whole entry, looked up): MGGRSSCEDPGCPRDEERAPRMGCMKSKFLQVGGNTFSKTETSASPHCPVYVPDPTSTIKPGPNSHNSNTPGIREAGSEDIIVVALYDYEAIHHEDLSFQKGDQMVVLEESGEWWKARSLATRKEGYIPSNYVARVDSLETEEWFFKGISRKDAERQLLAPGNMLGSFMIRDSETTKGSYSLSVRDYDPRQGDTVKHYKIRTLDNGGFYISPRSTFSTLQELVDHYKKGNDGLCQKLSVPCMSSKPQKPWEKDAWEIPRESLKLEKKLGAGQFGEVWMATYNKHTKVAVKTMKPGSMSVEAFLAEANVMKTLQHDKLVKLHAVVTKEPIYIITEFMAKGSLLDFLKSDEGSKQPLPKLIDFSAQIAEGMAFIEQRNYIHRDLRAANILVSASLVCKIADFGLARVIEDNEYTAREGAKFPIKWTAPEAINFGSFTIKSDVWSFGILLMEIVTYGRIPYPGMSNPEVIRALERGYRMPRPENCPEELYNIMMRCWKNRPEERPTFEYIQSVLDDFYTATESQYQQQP

[6] = target: FGFR3 (UniProt P22607); experiment: as above
FGFR3, sequence (P22607 whole entry, looked up): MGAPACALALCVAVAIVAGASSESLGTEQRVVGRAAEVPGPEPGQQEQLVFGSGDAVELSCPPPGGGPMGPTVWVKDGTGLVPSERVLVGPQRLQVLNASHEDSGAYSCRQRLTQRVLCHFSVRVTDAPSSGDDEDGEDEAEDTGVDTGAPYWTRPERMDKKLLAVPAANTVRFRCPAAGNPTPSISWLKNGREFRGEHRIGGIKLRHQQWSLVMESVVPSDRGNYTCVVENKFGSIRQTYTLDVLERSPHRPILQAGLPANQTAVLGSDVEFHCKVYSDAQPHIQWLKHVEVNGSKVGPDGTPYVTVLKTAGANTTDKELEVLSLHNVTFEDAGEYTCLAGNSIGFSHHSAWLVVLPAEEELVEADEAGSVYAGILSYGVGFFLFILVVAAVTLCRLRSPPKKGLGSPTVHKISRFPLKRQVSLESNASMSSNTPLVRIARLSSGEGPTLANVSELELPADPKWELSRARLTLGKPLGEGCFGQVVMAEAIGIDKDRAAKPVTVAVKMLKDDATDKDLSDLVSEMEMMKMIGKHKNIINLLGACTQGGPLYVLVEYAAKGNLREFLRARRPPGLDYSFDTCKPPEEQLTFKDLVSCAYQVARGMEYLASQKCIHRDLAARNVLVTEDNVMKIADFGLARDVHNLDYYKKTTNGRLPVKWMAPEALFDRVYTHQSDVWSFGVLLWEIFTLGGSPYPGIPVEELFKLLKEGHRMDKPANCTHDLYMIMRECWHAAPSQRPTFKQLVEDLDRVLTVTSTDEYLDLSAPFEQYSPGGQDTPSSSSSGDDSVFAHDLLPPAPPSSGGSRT

[7] = target: Fes (UniProt P07332); experiment: as above
[8] = test system: c-Abl (mouse); experiment: as above
[9] = target: Jak2 (UniProt O60674); experiment: as above
Jak2, sequence (O60674 whole entry, looked up): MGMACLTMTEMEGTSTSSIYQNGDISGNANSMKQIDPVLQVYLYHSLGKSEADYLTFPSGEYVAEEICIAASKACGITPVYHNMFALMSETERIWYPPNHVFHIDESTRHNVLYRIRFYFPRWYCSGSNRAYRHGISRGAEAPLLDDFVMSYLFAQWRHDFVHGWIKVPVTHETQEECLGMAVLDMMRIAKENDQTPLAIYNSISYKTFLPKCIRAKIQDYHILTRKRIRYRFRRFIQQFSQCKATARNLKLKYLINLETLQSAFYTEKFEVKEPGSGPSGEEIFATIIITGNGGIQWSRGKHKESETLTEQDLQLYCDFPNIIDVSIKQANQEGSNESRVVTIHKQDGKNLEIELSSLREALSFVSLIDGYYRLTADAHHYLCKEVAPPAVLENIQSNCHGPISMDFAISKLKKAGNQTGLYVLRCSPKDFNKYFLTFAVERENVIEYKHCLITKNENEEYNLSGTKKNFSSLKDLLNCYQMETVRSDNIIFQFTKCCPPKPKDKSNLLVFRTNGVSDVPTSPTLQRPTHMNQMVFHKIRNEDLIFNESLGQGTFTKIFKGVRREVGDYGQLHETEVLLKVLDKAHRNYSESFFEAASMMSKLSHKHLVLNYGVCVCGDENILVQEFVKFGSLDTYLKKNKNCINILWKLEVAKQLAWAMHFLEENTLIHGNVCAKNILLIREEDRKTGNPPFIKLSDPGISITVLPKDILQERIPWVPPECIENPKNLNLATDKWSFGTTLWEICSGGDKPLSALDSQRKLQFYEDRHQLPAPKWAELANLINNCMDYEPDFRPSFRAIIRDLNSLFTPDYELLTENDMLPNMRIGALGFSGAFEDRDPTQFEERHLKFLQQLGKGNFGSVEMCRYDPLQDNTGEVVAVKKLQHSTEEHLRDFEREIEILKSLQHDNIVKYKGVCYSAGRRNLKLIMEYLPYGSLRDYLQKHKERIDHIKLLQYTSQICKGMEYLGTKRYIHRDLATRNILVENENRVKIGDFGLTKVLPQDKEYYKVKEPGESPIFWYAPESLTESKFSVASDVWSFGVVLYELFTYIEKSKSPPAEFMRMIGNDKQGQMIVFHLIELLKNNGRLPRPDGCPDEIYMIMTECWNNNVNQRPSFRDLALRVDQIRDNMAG

[10] = target: Fyn (UniProt P06241); experiment: as above
Fyn, sequence (P06241 whole entry, looked up): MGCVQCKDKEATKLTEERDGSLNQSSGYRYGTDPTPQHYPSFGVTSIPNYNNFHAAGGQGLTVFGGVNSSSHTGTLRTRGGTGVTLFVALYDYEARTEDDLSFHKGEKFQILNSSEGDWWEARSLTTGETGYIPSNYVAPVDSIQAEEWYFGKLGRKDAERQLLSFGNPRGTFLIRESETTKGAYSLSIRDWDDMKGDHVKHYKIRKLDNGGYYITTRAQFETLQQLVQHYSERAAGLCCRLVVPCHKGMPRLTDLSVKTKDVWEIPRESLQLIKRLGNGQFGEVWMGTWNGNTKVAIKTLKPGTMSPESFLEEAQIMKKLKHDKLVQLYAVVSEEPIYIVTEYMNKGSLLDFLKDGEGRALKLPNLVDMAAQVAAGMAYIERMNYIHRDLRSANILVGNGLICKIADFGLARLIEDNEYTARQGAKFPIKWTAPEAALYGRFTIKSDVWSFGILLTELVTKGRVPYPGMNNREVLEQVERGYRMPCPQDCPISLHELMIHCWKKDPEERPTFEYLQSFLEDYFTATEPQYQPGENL

[11] = target: FGFR1 (UniProt P11362); experiment: as above
[12] = test system: Fer (mouse); experiment: as above
[13] = target: EPHB1 (UniProt P54762); experiment: as above
[14] = target: SHP2-C SH2; experiment: SH2 binding enrichment of the phosphorylated peptide, bacterial display (enrichment ratio); higher = better substrate or ligand; peptides without Tyr show the background
[15] = target: c-Src SH2; experiment: as above
[16] = target: Grb2 SH2 (UniProt P62993); experiment: as above
Grb2 SH2, sequence (P62993 whole entry, looked up, the tested form may be a part): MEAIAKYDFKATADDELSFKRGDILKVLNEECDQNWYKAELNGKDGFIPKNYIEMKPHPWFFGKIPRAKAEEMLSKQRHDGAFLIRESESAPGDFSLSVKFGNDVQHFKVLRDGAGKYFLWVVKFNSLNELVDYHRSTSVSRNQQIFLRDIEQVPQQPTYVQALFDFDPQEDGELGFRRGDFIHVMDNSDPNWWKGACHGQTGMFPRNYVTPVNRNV
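Throughout, for SH2 binding enrichment of the phosphorylated peptide, bacterial display: peptide library displayed on the E. coli surface as eCPX fusions, selected cells deep-sequenced, score is each peptide's frequency after selection divided by its frequency in the input.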
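Throughout, for phosphorylation enrichment, bacterial display: 11-residue human phosphosite peptides and single-mutation variants displayed on the E. coli surface, counted by deep sequencing, each peptide's frequency after selection divided by its frequency in the unselected input library; frequency after pTyr selection over input frequency; kinase dosed for 20-30% of maximal phosphorylation in three min.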

Sequence	phosphorylation enrichment [1]	phosphorylation enrichment [2]	phosphorylation enrichment [3]	phosphorylation enrichment [4]	phosphorylation enrichment [5]	phosphorylation enrichment [6]	phosphorylation enrichment [7]	phosphorylation enrichment [8]	phosphorylation enrichment [9]	phosphorylation enrichment [10]	phosphorylation enrichment [11]	phosphorylation enrichment [12]	phosphorylation enrichment [13]	SH2 binding enrichment [14]	SH2 binding enrichment [15]	SH2 binding enrichment [16]
LLANAYIYVVQ [L1CAM_Y418]	1.29	0.602	0.516	0.69	0.687	1.01	1.52	0.983	1.43	0.645	0.679	0.588	0.847	0.787	0.484	0.9
LLEGKYEWQEV [CDKN1B_Y74_P69L]	2	1.01	0.964	1.43	0.889	1.48	2.74	1.79	3	0.908	1.14	1.75	1.45	0.464	3.24	0.801
LLLLFCVVRFC [MPZ_Y177_Y177C_YF]	1.01	0.719	0.718	0.56	0.75	1.56	1.12	0.933	0.607	0.712	0.973	1.16	0.803	1.77	0.857	1.47
LNCAGYCDALE [MTUS1_Y151]	1.19	0.683	0.617	0.578	0.511	0.906	1.3	0.917	1.32	0.514	0.55	0.599	0.621	0.58	7.11	0.754
LNCIYYKDQTG [RS1_Y166_W163C]	3.56	1.4	1.78	1.15	4.01	4.51	3.26	1.08	1.42	2.93	2.69	1.55	3.64	0.743	0.551	0.867
LNGDRYFKGIV [DCX_Y64_R59L]	4.62	0.626	1.37	3.35	4.24	3.96	4.84	0.703	0.942	2.87	4.77	3.94	2.3	0.686	0.618	0.78
LNPFIYSLRNW [OR1A2_Y288]	2.05	8.69	4.23	0.819	6.49	1.1	1.73	4.13	1.34	7.05	0.644	2.28	1.52	1.78	1.79	1.23
LPKVSYMKAID [GLRA1_Y307_V308M]	0.941	0.574	0.484	0.711	0.406	0.77	0.911	0.967	0.707	0.694	0.481	0.65	0.632	0.731	0.473	0.995
LPSKDYAEVRR [HP_Y272_G276R]	0.598	0.832	0.361	0.638	0.7	0.865	0.832	1.75	0.539	0.559	0.712	0.419	1.48	1.31	1.72	0.965
LQFRNYQQLFD [MAN2A1_Y442_K440R]	2.02	1.03	0.789	0.928	0.771	1.41	2.25	1.3	2.42	1.08	0.857	0.65	1.42	0.947	1.78	0.689
LQRVQCDLQKA [DSP_Y1512_Y1512C]	1.14	0.709	0.762	0.827	0.812	1.31	1.16	0.987	1.43	0.811	1.06	0.809	1.12	0.558	0.543	0.696
LQTFRYHGHSM [PDHA1_Y289_YF]	0.664	0.761	0.716	0.61	0.616	0.999	1.06	0.775	0.876	0.948	0.68	0.592	0.843	1.03	0.499	0.901
LRAGVYPEKDQ [DNM2_Y626]	0.754	0.507	0.43	0.498	0.662	0.633	0.971	0.803	0.773	0.454	0.467	0.39	0.443	0.779	0.509	0.611
LRNIDYYRLDG [ATRX_Y2083]	1.3	3.35	0.851	0.776	1.16	8.11	1.58	0.815	6.17	3.96	13.1	0.499	1.07	11.9	0.775	0.874
LRVHSYKSMQH [DRC7_Y516_P521H]	1.4	1.06	0.896	0.772	0.634	0.69	0.883	1.13	1.42	0.954	0.533	0.949	0.911	1.18	0.841	0.881
LSAPCYLNRIS [HEXA_Y421_W420C]	0.825	0.422	0.382	0.552	0.507	0.535	0.82	0.631	0.634	0.377	0.495	0.424	0.447	0.888	0.594	1.14
LSIQCYLRALD [HMGCS2_Y262]	2.06	1.01	0.802	1.31	1.12	1.91	2.81	1.98	2.35	0.825	0.672	0.822	1.25	0.49	0.454	0.708

Sequence	phosphorylation enrichment [1]	phosphorylation enrichment [2]	phosphorylation enrichment [3]	phosphorylation enrichment [4]	phosphorylation enrichment [5]	phosphorylation enrichment [6]	phosphorylation enrichment [7]	phosphorylation enrichment [8]	phosphorylation enrichment [9]	phosphorylation enrichment [10]	phosphorylation enrichment [11]	phosphorylation enrichment [12]	phosphorylation enrichment [13]	SH2 binding enrichment [14]	SH2 binding enrichment [15]	SH2 binding enrichment [16]
LSIWPYLQKID [MFSD8_Y63_M58L]	1.16	0.686	0.6	0.759	0.566	0.85	1.37	0.6	1.43	0.501	0.584	0.577	0.929	1.1	0.797	1.23
LSNFNYEQRGA [API5_Y497_G493S]	1.21	1.14	0.796	1.15	0.509	1.02	1.51	1.11	1.41	1.14	0.918	0.651	0.796	0.706	0.48	0.897
LSVEIHDRREF [ITGB7_Y753_Y753H_YF]	1.63	0.795	0.558	1.1	0.814	1.17	1.59	0.86	1.3	0.65	0.87	0.795	0.88	0.563	0.421	0.678
LTERGYSFTTT [ACTB_Y198]	0.837	0.46	0.408	0.492	0.432	0.78	0.758	0.586	0.756	0.456	0.504	0.554	0.472	0.654	0.596	0.746
LTERGYSFVTT [ACTA1_Y200]	1.4	0.657	0.769	0.95	0.708	1.17	1.41	0.941	1.1	0.582	0.927	0.823	0.796	6.24	7.8	0.794
LTSKPYAFTAQ [NDUFS1_Y236_R241Q]	0.542	0.345	0.411	0.471	0.363	0.371	0.696	0.521	0.625	0.489	0.445	0.524	0.469	0.906	0.692	0.89
LTVVIYVLVGR [EPHA3_Y561_I564V]	1.16	0.183	0.479	0.251	0.168	0.44	0.63	0.81	0.391	1.12	0.54	0.348	0.26	4.03	2.03	3.76
LVMFFYAIFGM [SCN1A_Y1684_I1683F]	1.35	0.524	0.84	0.566	0.446	1.34	1.23	0.937	1.06	0.789	0.898	0.708	0.608	2.64	1.44	1.58
LVMFISAIFGM [SCN1A_Y1684_Y1684S]	1.69	0.922	0.722	1.07	0.804	1.46	2.05	1.36	1.77	0.788	1.15	1.33	1.1	0.842	0.893	1.39
LYEDHYLLGTS [ASS1_Y87_R86H]	1.66	2.73	2.08	3.05	1.19	0.972	1.37	1.1	2.17	1.86	0.689	16.1	12.3	0.565	0.571	0.9
LYSGDCYRIQG [DDR2_Y740_Y740C]	1.05	1.22	6.98	1.3	1.16	1.11	1.18	0.808	1.04	1.18	0.956	0.73	1.8	0.701	0.522	0.828
LYSGDYYRIQG [DDR2_Y740]	7.93	10.5	19.3	30.3	10.4	26	1.83	7.77	23.8	11.5	32.7	1.81	29.2	0.531	0.984	1.02
LYSINYLHFGE [KDM4C_Y201]	2.05	2.56	11	9.01	3.5	3.52	1.57	2.08	1.1	3.5	3.6	11.1	10.7	2.6	1.31	1.54
MASTSYDYCRV [BST2_Y6]	1.11	0.577	0.904	3.51	0.905	0.851	0.68	0.956	0.687	0.481	1.27	2.69	4.88	0.671	1.79	0.904
MAYDRYVAICS [OR8D4_Y123_C120Y]	1.01	0.762	0.77	2.12	0.745	0.753	1.01	1.03	1.15	0.486	0.603	0.547	1.28	0.713	0.98	0.766
MCITQYKRESQ [PRNP_Y218_E219K]	0.875	0.42	0.475	0.587	0.433	0.606	0.837	0.454	0.736	0.519	0.443	0.501	0.384	1.08	0.957	0.897
